± gives the standard error. For part of these data: This sample holds only a part of the variants without activity.
B1: glmS ribozyme (parent)
chain: AUAAAAGCGCCAGAACUACAGAAAUGUAGUUGACGAGGAGGAGGUUUAUCGAAUUUUCGGCGGAUGCCUCCAAA

Tests used:
Conditions in all cases: with glucosamine-6-phosphate
[1] = variants of: B1; assay: kcat; higher = faster cleavage; RNA array
Outline: (§1)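 On sequenced MiSeq chips, barcoded ribozyme variants were made in situ by E. coli RNA polymerase and followed at 37 °C through a hybridised Cy3 probe. Glucosamine-6-phosphate was flowed in at 40 μM to 10 mM in HEPES/KCl/Mg(OAc)2 buffer. Exponential fits to normalised per-tile medians gave kobs, and weighted Michaelis–Menten fits gave kcat and KM.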

[2] = variants of: B1; assay: KM; higher = weaker cofactor use; RNA array
Outline: as §1

[3] = variants of: B1; assay: self-cleavage kobs at 40 uM GlcN6P; higher = faster cleavage; RNA array
Outline: as §1

[4] = variants of: B1; assay: self-cleavage kobs at 160 uM GlcN6P; higher = faster cleavage; RNA array
Outline: as §1

[5] = variants of: B1; assay: self-cleavage kobs at 640 uM GlcN6P; higher = faster cleavage; RNA array
Outline: as §1

[6] = variants of: B1; assay: self-cleavage kobs at 2500 uM GlcN6P; higher = faster cleavage; RNA array
Outline: as §1

[7] = variants of: B1; assay: self-cleavage kobs at 10000 uM GlcN6P; higher = faster cleavage; RNA array
Outline: as §1

| Variant | kcat [1] [s⁻¹] | KM [2] [µM] | self-cleavage kobs at 40 uM GlcN6P [3] [s⁻¹] | self-cleavage kobs at 160 uM GlcN6P [4] [s⁻¹] | self-cleavage kobs at 640 uM GlcN6P [5] [s⁻¹] | self-cleavage kobs at 2500 uM GlcN6P [6] [s⁻¹] | self-cleavage kobs at 10000 uM GlcN6P [7] [s⁻¹] |
| --- | --- | --- | --- | --- | --- | --- | --- |
| G44U C67G | 0.0189 ± 0.0043 | 1120 ± 340 | 0.00061 ± 6.9e-05 | 0.00226 ± 0.0003 | 0.00865 ± 0.0011 | 0.023 ± 0.0048 | 0.0148 ± 0.0022 |
| A42G A52C | 1.58e-05 ± 1.8e-06 | – | – | – | – | – | – |
| A42G A52G | 0.00211 ± 0.00034 | 2550 ± 600 | – | 0.000117 ± 1.7e-05 | 0.000471 ± 4.8e-05 | 0.000991 ± 8.9e-05 | 0.00187 ± 0.00037 |
| G40U U65A | 0.000363 ± 4.2e-05 | 735 ± 170 | – | 6.26e-05 ± 1.5e-05 | 0.000191 ± 3.7e-05 | 0.000235 ± 6.9e-05 | 0.000352 ± 7e-05 |
| G40U U65C | 6.53e-05 ± 8.5e-06 | – | – | – | – | 6.94e-05 ± 1.5e-05 | 5.76e-05 ± 1.1e-05 |
| A42U U69C C71U | 0.00168 ± 0.0003 | 700 ± 210 | 8.14e-05 ± 1.7e-05 | – | 0.000956 ± 0.00016 | 0.00156 ± 0.00038 | 0.00136 ± 0.00028 |
| G40U C67A | 0.000158 ± 6.3e-05 | – | – | – | 7.75e-05 ± 1.4e-05 | 9.78e-05 ± 1.7e-05 | 0.000218 ± 5.5e-05 |
| G44C G66U | < 1e-05 | – | < 1e-05 | < 1e-05 | < 1e-05 | – | < 1e-05 |
| G40C G41A | 0.000118 ± 1.4e-05 | 667 ± 260 | – | – | 5.69e-05 ± 8.6e-06 | 0.000104 ± 1.1e-05 | 0.000101 ± 1.3e-05 |
| G44C C68U | 8.31e-05 ± 1.5e-05 | 5560 ± 1800 | < 1e-05 | < 1e-05 | – | 2.65e-05 ± 1.2e-05 | – |
| G43U U45G | 0.00603 ± 0.00084 | 1980 ± 380 | 0.00013 ± 1.9e-05 | 0.000412 ± 0.00012 | 0.00124 ± 0.00027 | 0.00422 ± 0.0011 | 0.005 ± 0.00078 |
| A42G C58G | 0.000303 ± 2.3e-05 | 6970 ± 950 | – | – | – | 7.8e-05 ± 1.5e-05 | 0.00018 ± 2.6e-05 |
| G40U G41U | 8.36e-05 ± 7.4e-06 | 901 ± 330 | < 1e-05 | – | 2.92e-05 ± 8e-06 | 7.1e-05 ± 8.5e-06 | 7.34e-05 ± 7e-06 |
| G40U G41C | 9.58e-05 ± 2.6e-05 | – | – | < 1e-05 | – | 8.94e-05 ± 1.2e-05 | 7.67e-05 ± 1.2e-05 |
| G41U C68U | 5.17e-05 ± 8.8e-06 | – | – | < 1e-05 | – | – | – |
| G44U U55G | 0.000311 ± 3.4e-05 | 1860 ± 400 | – | – | 7.46e-05 ± 1.3e-05 | 0.000204 ± 3.6e-05 | 0.00025 ± 4.1e-05 |

| Variant | kcat [1] [s⁻¹] | KM [2] [µM] | self-cleavage kobs at 40 uM GlcN6P [3] [s⁻¹] | self-cleavage kobs at 160 uM GlcN6P [4] [s⁻¹] | self-cleavage kobs at 640 uM GlcN6P [5] [s⁻¹] | self-cleavage kobs at 2500 uM GlcN6P [6] [s⁻¹] | self-cleavage kobs at 10000 uM GlcN6P [7] [s⁻¹] |
| --- | --- | --- | --- | --- | --- | --- | --- |
| G44U U55C | 9.04e-05 ± 3.7e-06 | 8390 ± 750 | – | < 1e-05 | – | – | 4.92e-05 ± 1.3e-05 |
| G43U C67U C68U | 4.99e-05 ± 2e-05 | – | – | – | – | 7.28e-05 ± 2.2e-05 | 3.53e-05 ± 1.7e-05 |
| A42G U56A | 0.0334 ± 0.011 | 4460 ± 1800 | 0.000401 ± 8.1e-05 | 0.000893 ± 0.00024 | 0.00451 ± 0.001 | 0.0106 ± 0.0033 | 0.024 ± 0.0052 |
| A42G U56C | 0.00693 ± 0.0014 | 3180 ± 860 | 7.76e-05 ± 1.5e-05 | 0.000469 ± 8.9e-05 | 0.00106 ± 0.00018 | 0.00317 ± 0.0005 | 0.00522 ± 0.0008 |
| G43A C71U | < 1e-05 | – | < 1e-05 | – | – | – | – |
| G40U A42G | 0.00742 ± 0.00078 | 1330 ± 220 | 0.000214 ± 4e-05 | 0.00072 ± 0.00018 | 0.00267 ± 0.00058 | 0.00567 ± 0.001 | 0.00603 ± 0.001 |
| A42U U65G | 0.000343 ± 2.8e-05 | 3030 ± 500 | – | – | 5.7e-05 ± 1e-05 | 0.000165 ± 1.9e-05 | 0.000257 ± 2.8e-05 |
| A42U C50G | < 1e-05 | – | < 1e-05 | – | – | – | < 1e-05 |
| A42C | 1.83e-05 ± 2.5e-07 | 5140 ± 190 | – | – | – | – | 1.21e-05 ± 1.4e-06 |
| A42U | 0.00024 ± 2.1e-05 | 1350 ± 270 | < 1e-05 | 2.06e-05 ± 1.8e-06 | 7.53e-05 ± 1.4e-06 | 0.000187 ± 3.7e-06 | 0.000203 ± 2.9e-06 |
| A42G | 0.0432 ± 0.015 | 1270 ± 530 | 0.00143 ± 3.4e-05 | 0.00406 ± 0.00021 | 0.0128 ± 0.00054 | 0.0238 ± 0.0016 | 0.0639 ± 0.0036 |
| G41U U56G | 0.000847 ± 0.00013 | 2280 ± 590 | 2.66e-05 ± 1.2e-05 | 4.73e-05 ± 1.1e-05 | 0.000185 ± 3.5e-05 | 0.000491 ± 5.8e-05 | 0.00064 ± 9.6e-05 |
| G41U U56C | 3.03e-05 ± 3.2e-06 | 1560 ± 400 | – | < 1e-05 | – | – | – |
| G44C U55C | 3.25e-05 ± 2.5e-06 | – | – | – | 2.79e-05 ± 1.3e-05 | – | – |
| G40U U45C C70U | 0.000444 ± 6.4e-05 | 1000 ± 370 | – | – | 0.000186 ± 3.9e-05 | 0.00025 ± 8.8e-05 | 0.000426 ± 7.7e-05 |
| G43U G66A | 2.89e-05 ± 1.6e-06 | 431 ± 170 | – | – | – | – | – |
